In test [1] the target is human HLA-G expressed on cells (JEG3 cells, natural; SKOV3 cells transfected with recombinant HLA-G) (human) (UniProt P17693). Put plainly: flow cytometry on JEG3 cells (natural HLA-G); isotype control; detection with goat anti-human IgG (H+L) Alexa 488.
Test [2] has the same target. Put plainly: flow cytometry on SKOV3 HLA-G cells (SKOV3 transfected with HLA-G); isotype control; detection with goat anti-human IgG (H+L) Alexa 488.

Isotype (antibody): the MFI in test [1] worked out at 57; in test [2], 78.
